The source of these data is patent US20180140739A1, “HAEMOSTATIC DEVICE” (HAEMOSTATIX LIMITED, priority 2015, published 2018).

Ends that are not written are not given here. A value given as a limit tells only on which side of the number the result lay.

For assay [1], the target named is T1, fibrinogen hole 'a' and hole 'b' (Homo sapiens, UniProt P02675+P02679).
T1 sequence (P02679 27-433 limits assumed): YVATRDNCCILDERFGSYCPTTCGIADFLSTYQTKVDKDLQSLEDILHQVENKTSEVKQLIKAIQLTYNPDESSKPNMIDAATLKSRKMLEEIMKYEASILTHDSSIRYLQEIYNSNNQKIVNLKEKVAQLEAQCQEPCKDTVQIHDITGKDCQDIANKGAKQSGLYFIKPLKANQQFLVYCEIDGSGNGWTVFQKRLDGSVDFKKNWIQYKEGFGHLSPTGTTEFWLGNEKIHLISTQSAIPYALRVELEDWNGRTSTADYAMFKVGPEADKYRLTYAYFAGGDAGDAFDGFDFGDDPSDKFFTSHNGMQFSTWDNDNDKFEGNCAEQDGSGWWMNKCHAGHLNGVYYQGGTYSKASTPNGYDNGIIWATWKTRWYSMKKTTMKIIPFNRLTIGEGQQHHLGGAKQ
T1 sequence (P02675 31-491): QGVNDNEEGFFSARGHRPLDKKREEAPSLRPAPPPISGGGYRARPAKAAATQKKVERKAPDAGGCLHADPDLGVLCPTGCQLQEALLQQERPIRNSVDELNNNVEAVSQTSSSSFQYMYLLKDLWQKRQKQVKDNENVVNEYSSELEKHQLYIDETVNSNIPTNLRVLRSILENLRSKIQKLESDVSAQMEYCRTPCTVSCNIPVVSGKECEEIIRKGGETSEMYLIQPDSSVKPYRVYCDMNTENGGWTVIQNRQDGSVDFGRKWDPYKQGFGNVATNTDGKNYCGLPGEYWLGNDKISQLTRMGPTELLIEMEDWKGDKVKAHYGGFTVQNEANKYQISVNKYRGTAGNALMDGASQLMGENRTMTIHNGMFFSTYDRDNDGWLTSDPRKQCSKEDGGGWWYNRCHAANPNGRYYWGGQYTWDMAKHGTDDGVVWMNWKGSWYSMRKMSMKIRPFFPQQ
T1 sequence (P02671 20-629 partner limits assumed): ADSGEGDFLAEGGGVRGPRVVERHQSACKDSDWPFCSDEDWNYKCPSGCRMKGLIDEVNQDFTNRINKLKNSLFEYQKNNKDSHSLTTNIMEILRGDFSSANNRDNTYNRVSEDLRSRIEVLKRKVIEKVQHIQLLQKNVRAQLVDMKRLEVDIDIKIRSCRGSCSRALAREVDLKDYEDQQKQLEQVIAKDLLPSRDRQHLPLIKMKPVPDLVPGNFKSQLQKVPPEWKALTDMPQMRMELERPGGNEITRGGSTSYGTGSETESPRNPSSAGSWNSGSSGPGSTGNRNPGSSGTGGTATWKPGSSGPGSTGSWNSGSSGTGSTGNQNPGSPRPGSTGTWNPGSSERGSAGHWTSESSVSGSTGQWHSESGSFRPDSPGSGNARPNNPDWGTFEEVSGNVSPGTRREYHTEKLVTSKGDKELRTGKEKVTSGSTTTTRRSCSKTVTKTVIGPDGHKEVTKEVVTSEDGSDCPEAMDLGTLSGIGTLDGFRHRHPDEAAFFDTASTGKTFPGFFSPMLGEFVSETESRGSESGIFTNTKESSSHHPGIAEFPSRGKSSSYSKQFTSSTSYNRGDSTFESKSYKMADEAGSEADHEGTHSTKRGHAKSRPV
The following applies: cited from earlier work.

Assay [2] concerns the target T2, purified human fibrinogen (Homo sapiens, UniProt P02675+P02679).
T2 sequence (P02679 27-433 limits assumed): T1 sequence (P02679 27-433 limits assumed)
T2 sequence (P02675 31-491): T1 sequence (P02675 31-491)
T2 sequence (P02671 20-629 partner limits assumed): T1 sequence (P02671 20-629 partner limits assumed)
In words: Polymerisation (clotting) of purified fibrinogen, Sigma Amelung KC4 Delta coagulation analyser. The format is biochemical. The procedure:
The ability of Peptide Dendrimer No. 12 to polymerise fibrinogen was assessed. 30 μl of dendrimer in solution, at concentration ranging from 0.005-2 mg/ml, was added to 100 μl purified human fibrinogen at 3 mg/ml (the level of fibrinogen found in the blood). Polymerisation of fibrinogen was analysed using a Sigma Amelung KC4 Delta coagulation analyser.
The concentration of each dendrimer was varied from 0.005-0.5 mg/ml.

In assay [3] the target is T3, fibrinogen in human plasma (Homo sapiens, UniProt P02675+P02679).
T3 construct: from tissue; host or cells: human plasma
T3 sequence (P02679 27-433 limits assumed): T1 sequence (P02679 27-433 limits assumed)
T3 sequence (P02675 31-491): T1 sequence (P02675 31-491)
T3 sequence (P02671 20-629 partner limits assumed): T1 sequence (P02671 20-629 partner limits assumed)
In words: Polymerisation of fibrinogen in human plasma, KC4 Delta coagulation analyzer. In kind it is biochemical. The following applies: dendrimer 0.25 mg/ml, 30 μL to 100 μL human plasma, 37° C. The protocol:
30 μL of each dendrimer (at a concentration of 0.25 mg/ml) was added to 100 μL human plasma at 37° C., and polymerisation of fibrinogen was determined using a Sigma Amelung KC4 Delta coagulation analyzer.

The target in another assay is T4, human fibrinogen (Homo sapiens, UniProt P02675+P02679).
T4 sequence (P02679 27-433 limits assumed): T1 sequence (P02679 27-433 limits assumed)
T4 sequence (P02675 31-491): T1 sequence (P02675 31-491)
T4 sequence (P02671 20-629 partner limits assumed): T1 sequence (P02671 20-629 partner limits assumed)
Briefly: Clotting activity of dendrimers extracted from gelatin paste after gamma irradiation and storage. In kind it is biochemical. The following applies: fibrinogen 3 mg/ml, 37° C. The protocol:
2 ml of solution of Peptide Dendrimer No. 12 or 13 was mixed with SURGIFLO Haemostatic Matrix (a hydrated flowable gelatin matrix) to form a paste of each peptide. Each paste was sterilised by irradiation with ^60Co gamma rays at a dose of 30 kGy, and then stored at room temperature. Samples of the sterilised pastes were used for testing after storage for two and four weeks.
After storage, peptide dendrimers were extracted from each paste using […] HEPES buffer. 30 μL of each extract (with a peptide concentration of about 0.25 mg/ml) was added to 100 μL of human fibrinogen at 3 mg/ml, and the ability of each dendrimer to polymerise fibrinogen (the ‘clotting’ activity) at 37° C. was determined using a Sigma Amelung KC4 Delta coagulation analyser. The polymerisation activity of non-irradiated control samples was also determined.

Another assay has as its target human fibrinogen (human) (UniProt P02671). Briefly: cell-based or functional assay.

On to GFIRPY, for which the “binding preference for hole 'a' / hole 'b' of fibrinogen” value in assay [1] was “binds strongly and preferentially to the ‘b’ hole of fibrinogen”.

As to GPRP, in assay [1], the “binding preference for hole 'a' / hole 'b' of fibrinogen” value was “binds strongly and preferentially to the ‘a’ hole of fibrinogen”.

For GPRPFPA (listed as Homo sapiens), the “binding preference for hole 'a' / hole 'b' of fibrinogen” value in assay [1] is listed as “binds with high preference for hole ‘a’ in fibrinogen”.

Turning to GPRPG (listed as Homo sapiens), the “binding preference for hole 'a' / hole 'b' of fibrinogen” value in assay [1] was “binds to hole ‘a’ and hole ‘b’ of fibrinogen, but with some preference for hole ‘a’”.

As to “Peptide Conjugate No. 1 (peptide 1 GPRP; peptide 2 GPRP; also: peptide conjugate of two chains, linkage not given here)”, the “activity of mixtures of peptide conjugate (2 mg/ml) with Peptide Dendrimer No. 3 or 4 in copolymerising with fibrinogen” value in assay [2] (conjugate 2 mg/ml, dendrimer 0.025-0.5 mg/ml) was “not active”.

For the molecule “Peptide Dendrimer No. 12 (peptide GPRPG; chain KKKKK)”, the “copolymerisation with fibrinogen (clotting time)” value in assay [2] (dendrimer 0.005-2 mg/ml, fibrinogen 3 mg/ml) is listed as “able to copolymerise with fibrinogen almost instantaneously, even at very low concentrations”. Further, the “clotting time at high dendrimer concentration” value in assay [2] (dendrimer concentrations above 0.5 mg/ml, fibrinogen 3 mg/ml) is recorded as “increase in clotting time”. For the same molecule, the clotting entry in assay [2] (dendrimer range ~0.02-0.5 mg/ml) is given as “almost instantaneous clotting”. For the same molecule, in assay [3], the “ability to polymerise fibrinogen in human plasma” value was “able to polymerise fibrinogen in human plasma” and the “clotting time in human plasma” value is reported as “less than one”. In addition, the “Clotting activity, Non-irradiated control” value with human fibrinogen (extract from SURGIFLO paste, about 0.25 mg/ml peptide, not irradiated) is 1 s. The “Clotting activity, Storage for 2 weeks post irradiation” value with human fibrinogen (paste irradiated 30 kGy 60Co gamma, stored 2 weeks at room temperature, about 0.25 mg/ml) amounted to 1 s. The “Clotting activity, Storage for 4 weeks post irradiation” value with human fibrinogen (paste irradiated 30 kGy 60Co gamma, stored 4 weeks at room temperature, about 0.25 mg/ml) amounted to 1 s.

B1: Peptide Dendrimer No. 12 (peptide, from a related filing, part only)
peptide: GPRPG
chain: KKKKK
modifications: also: five-arm dendrimer, all arms GPRPG, C-termini attached to branched core
For the molecule B1, in the assay with human fibrinogen (human), the Clotting activity (seconds), non-irradiated control; extract about 0.25 mg/ml with human fibrinogen 3 mg/ml, 37° C. was found to be 1 s; the Clotting activity (seconds), storage for 2 weeks post irradiation (30 kGy); extract about 0.25 mg/ml with human fibrinogen 3 mg/ml, 37° C. stood at 1 s; the Clotting activity (seconds), storage for 4 weeks post irradiation (30 kGy); extract about 0.25 mg/ml with human fibrinogen 3 mg/ml, 37° C. was found to be 1 s; the clotting time in human plasma, dendrimer 0.25 mg/ml, 37° C., coagulation analyser is below 1 s.
